# Assay results reported in paper PMC10976854.
# Values joined by “and” are separate entries in the source; they are usually repeats but may differ in a detail not shown here. Identical values can stand only once.
# How the values were obtained:
# [1] = target: collagenase-cleaved xZP2-N2N3 (Xenopus); assay: native MS
# [2] = target: collagenase-cleaved xZP2-N2N3 (Xenopus); assay: SEC-MALS
# [3] = target: Xenopus egg exudate-cleaved xZP2-N2N3 (Xenopus); assay: native MS
# [4] = target: Xenopus egg exudate-cleaved xZP2-N2N3 (Xenopus); assay: SEC-MALS
stoichiometry N [1],stoichiometry N [2],stoichiometry N [3],stoichiometry N [4],Binder
4,4,,,"collagenase-cleaved xZP2-N2N3 (domain or fragment, modifications not checked) chain 1: DEPGSSVVTCTKDSMTVRIPRTLSGFDDEIP chain 2: VAAPSFWDLEVKFTGQTSLLGMSEARQRGYQFSSDPYYLTVQASYSAFGLNVFNLENQRLYVADLRLVSQFGSPRISIDTPMICARDSPSCNSTHATVLIPFFGGVLTGINVNSVNIQLSSYSLQQHGITLDSRNGYRLYIKRSTLKGDRNDVLVLTFIYYGKTVPMLISLVCSGGSN"
,,2 and 4,4 and 2,"Xenopus egg exudate-cleaved xZP2-N2N3 (domain or fragment, modifications not checked) chain 1: DEPGSSVVTCTKDSMTVRIPRTLSGFDDEIP chain 2: VAAPSFWDLEVKFTGQTSLLGMSEARQRGYQFSSDPYYLTVQASYSAFGLNVFNLENQRLYVADLRLVSQFGSPRISIDTPMICARDSPSCNSTHATVLIPFFGGVLTGINVNSVNIQLSSYSLQQHGITLDSRNGYRLYIKRSTLKGDRNDVLVLTFIYYGKTVPMLISLVCSGGSN"
